Data as given in paper PMC5888579.

Target: FEN1 (human, UniProt P39748 2-380)
Test: smFRET kinetics

Chain of FEN1 (P39748 2-380): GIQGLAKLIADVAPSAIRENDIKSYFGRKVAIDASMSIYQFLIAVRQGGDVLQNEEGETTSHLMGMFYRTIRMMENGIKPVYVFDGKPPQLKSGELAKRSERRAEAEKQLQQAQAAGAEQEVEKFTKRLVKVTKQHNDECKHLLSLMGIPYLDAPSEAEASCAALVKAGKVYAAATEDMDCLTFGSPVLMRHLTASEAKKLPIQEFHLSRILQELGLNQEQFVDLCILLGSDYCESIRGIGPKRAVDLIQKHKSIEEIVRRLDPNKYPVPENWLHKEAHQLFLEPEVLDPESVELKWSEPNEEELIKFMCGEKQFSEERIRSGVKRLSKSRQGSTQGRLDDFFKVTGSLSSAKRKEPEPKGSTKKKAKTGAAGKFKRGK

B1: NickInternal (dsDNA)
DNA 1: TGACCGTGTTTGACGGTCGTGAGGAGGAAAGTTCCTCCTACGGCAG
DNA 2: CTGCCGTAGGAGGAACTTTCCTCCTC
DNA 3: ACGACCGTCAAACAACGGTCA
modifications: 5' phosphate at nick; biotin; iCy3 internal in template
  Kd: 62 ± 9 nM
